Assay results taken from PMC12018148.
Where a chain is given by its changes, count along the chain named. Names and notes keep the numbering of the source. Each block holds one binder with its values, some of them ahead of it.

Assays:
[1] = biological target: activated factor XI (FXIa) (human); experiment: kinetics of protease inhibition
[2] = biological target: activated factor X (FXa) (human); experiment: kinetics of protease inhibition
Chain of activated factor X (FXa) (human) (P00742 whole entry): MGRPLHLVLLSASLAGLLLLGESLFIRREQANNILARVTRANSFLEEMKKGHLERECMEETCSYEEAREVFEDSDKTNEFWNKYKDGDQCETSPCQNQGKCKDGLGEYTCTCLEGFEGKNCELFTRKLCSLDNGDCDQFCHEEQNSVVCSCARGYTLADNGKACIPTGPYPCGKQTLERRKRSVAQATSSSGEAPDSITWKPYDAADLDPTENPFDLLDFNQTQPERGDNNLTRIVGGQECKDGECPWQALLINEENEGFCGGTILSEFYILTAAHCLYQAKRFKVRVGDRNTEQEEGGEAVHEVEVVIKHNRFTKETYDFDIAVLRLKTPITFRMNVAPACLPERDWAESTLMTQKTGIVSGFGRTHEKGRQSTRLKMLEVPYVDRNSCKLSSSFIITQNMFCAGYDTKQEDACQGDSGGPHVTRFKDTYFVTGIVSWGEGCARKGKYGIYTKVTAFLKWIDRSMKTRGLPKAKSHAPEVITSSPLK

Kd [1]: 2 nM
kon [1]: 86200 M⁻¹ s⁻¹
ka with equimolar PZ and lipids, no FVa [2]: 1.79e+06 M⁻¹ s⁻¹
ka with equimolar PZ, lipids and FVa [2]: 296000 M⁻¹ s⁻¹
kon [2]: 9200 M⁻¹ s⁻¹
B1: protein Z-dependent protease inhibitor (ZPI), wild type, recombinant human (natural protein)
chain: LAPSPQSPETPAPQNQTSRVVQAPKEEEEDEQEASEEKASEEEKAWLMASRQQLAKETSNFGFSLLRKISMRHDGNMVFSPFGMSLAMTGLMLGATGPTETQIKRGLHLQALKPTKPGLLPSLFKGLRETLSRNLELGLTQGSFAFIHKDFDVKETFFNLSKRYFDTECVPMNFRNASQAKRLMNHYINKETRGKIPKLFDEINPETKLILVDYILFKGKWLTPFDPVFTEVDTFHLDKYKTIKVPMMYGAGKFASTFDKNFRCHVLKLPYQGNATMLVVLMEKMGDHLALEDYLTTDLVETWLRNMKTRNMEVFFPKFKLDQKYEMHELLRQMGIRRIFSPFADLSELSATGRNLQVSRVLQRTVIEVDERGTEAVAGILSEITAYSMPPVIKVDRPFHFMIYEETSGMLLFLGRVVNPTLL

Kd [1]: 2 nM
kon [1]: 112000 M⁻¹ s⁻¹
ka with equimolar PZ and lipids, no FVa [2]: 85000 M⁻¹ s⁻¹
ka with equimolar PZ, lipids and FVa [2]: 6800 M⁻¹ s⁻¹
kon [2]: 9500 M⁻¹ s⁻¹
B2: D293A ZPI (protein Z-dependent protease inhibitor with Asp 293 mutated to Ala), recombinant human (natural protein)
chain: B1 chain with D293A

kon [1]: 2600 M⁻¹ s⁻¹
B3: D293A/Y387D ZPI (double mutant of the protein Z-dependent protease inhibitor; P1 residue Y387 changed) (natural protein)
chain: B1 chain with D293A, Y387D
